Data on four molecules can be found in paper PMC5737516.

Numbering of substitutions follows the chain as printed. Where two headings read alike, the source gives them in different places.

What all share (test): pull-down
The target in one series is T1, M1BP (UniProt Q9VHM3 1-418).
T1 sequence: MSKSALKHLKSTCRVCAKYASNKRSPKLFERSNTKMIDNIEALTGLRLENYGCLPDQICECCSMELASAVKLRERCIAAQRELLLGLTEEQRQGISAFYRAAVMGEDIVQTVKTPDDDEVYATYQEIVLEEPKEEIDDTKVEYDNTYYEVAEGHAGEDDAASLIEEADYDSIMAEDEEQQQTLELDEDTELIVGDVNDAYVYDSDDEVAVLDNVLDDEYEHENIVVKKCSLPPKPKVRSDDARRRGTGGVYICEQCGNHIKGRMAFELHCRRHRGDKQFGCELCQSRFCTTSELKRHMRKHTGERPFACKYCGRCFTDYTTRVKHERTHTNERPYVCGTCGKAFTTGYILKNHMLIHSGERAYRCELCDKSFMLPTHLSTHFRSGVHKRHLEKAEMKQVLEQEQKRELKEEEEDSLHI

In series [1] the target is T2, M1BP;TRF2 (Drosophila melanogaster?;Drosophila …, UniProt Q9VHM3;Q9XZD9 1-418;1-632, |).
T2 sequence 1: T1 sequence
T2 sequence 2: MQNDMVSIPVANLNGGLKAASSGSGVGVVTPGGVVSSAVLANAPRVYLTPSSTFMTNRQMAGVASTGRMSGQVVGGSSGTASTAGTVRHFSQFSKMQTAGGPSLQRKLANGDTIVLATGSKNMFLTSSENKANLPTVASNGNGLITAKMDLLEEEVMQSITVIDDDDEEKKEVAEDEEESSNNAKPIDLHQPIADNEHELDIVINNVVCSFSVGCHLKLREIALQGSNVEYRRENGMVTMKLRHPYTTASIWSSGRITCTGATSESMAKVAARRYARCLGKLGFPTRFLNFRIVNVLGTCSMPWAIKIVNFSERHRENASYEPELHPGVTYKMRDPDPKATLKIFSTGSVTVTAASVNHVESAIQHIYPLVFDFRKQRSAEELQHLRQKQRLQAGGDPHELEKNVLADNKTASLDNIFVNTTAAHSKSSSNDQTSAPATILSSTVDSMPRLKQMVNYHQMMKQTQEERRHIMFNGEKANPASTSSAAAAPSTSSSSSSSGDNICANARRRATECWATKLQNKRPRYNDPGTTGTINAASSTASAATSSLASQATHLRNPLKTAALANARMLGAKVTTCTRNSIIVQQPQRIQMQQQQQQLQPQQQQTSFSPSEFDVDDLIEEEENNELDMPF

The target of series [2] is T2, M1BP;TRF2. The source holds these as a separate data set.

B1: RpL30 wtMotif1 (-52 to +8) (dsDNA)
DNA 1: CCCGTCGGTCACACCAACACAAACGTGGTACCCATTTCCGCCTGTTCTTCCTCTTTCTTT
DNA 2: AAAGAAAGAGGAAGAACAGGCGGAAATGGGTACCACGTTTGTGTTGGTGTGACCGACGGG
Turning to B1, the binding result with M1BP and with M1BP;TRF2 [1] was “binds” throughout.

B2: RpL30 mutMotif1 (-52 to +8) (dsDNA)
DNA 1: B1 DNA 1 with G7C, C12G, C14G
DNA 2: B1 DNA 2 with G47C, G49C, C54G
Turning to B2, the binding result in the series with M1BP and with M1BP;TRF2 [2] was “no binding” throughout.

B3: RpLP1 wtMotif1 (-36 to +14) (dsDNA)
DNA 1: TTCGTCATCGGCGCGGTCACACTGCATATCAACTGCTCTTTCCGGTTTAG
DNA 2: CTAAACCGGAAAGAGCAGTTGATATGCAGTGTGACCGCGCCGATGACGAA
Turning to B3, the binding result in the series with M1BP and in the series with M1BP;TRF2 [1] was “binds” each time.

B4: RpLP1 mutMotif1 (-36 to +14) (dsDNA)
DNA 1: B3 DNA 1 with G15C, C20G, C22G
DNA 2: B3 DNA 2 with G29C, G31C, C36G
Turning to B4, the binding result with M1BP and with M1BP;TRF2 [2] was “no binding” each time.
